Experimental data: US20220177587A1, “METHODS AND USES OF VARIANT CD80 FUSION PROTEINS AND RELATED CONSTRUCTS” (Alpine Immune Sciences, Inc., priority 2018, published 2022)
Changes are numbered by the printed parent chain. In names and notes the source's numbering stands.

B1: R29D, Y31L, Q33H, K36G, M38I, T41A, M43R, M47T, E81V, L85R, K89N, A91T, F92P, K93V, R94L, I118V, T120S, I127T, C128Y, T130A, H188D (protein)
chain: VIHVTKEVKEVATLSCGHNVSVEELAQTDILWHKEGKIVLAMRSGDTNIWPEYKNRTIFDITNNLSIVILALRPSDEGTYVCVVRKYENDTPVLEHLAEVTLSVKADFPTPSISDFEVPSSNIRRITYSASGGFPEPHLSWLENGEELNAINTTVSQDPETELYAVSSKLDFNMTTNHSFMCLIKYGDLRVNQTFNWNTTKQEHFPDN
B2: T13R/C16R/L70Q/A71D: variant CD80 IgV-Fc, IgV SEQ ID NO:155 (protein)
chain: VIHVTKEVKEVARLSRGHNVSVEELAQTRIYWQKEKKMVLTMMSGDMNIWPEYKNRTIFDITNNLSIVIQDLRPSDEGTYECVVLKYEKDAFKREHLAEVTLSVKAD
B3: E81K/A91S: variant CD80 IgV-Fc, IgV SEQ ID NO:172 (protein)
chain: B2 chain with R13T, R16C, Q70L, D71A, E81K, A91S
B4: K34E/T41A/L72V: variant CD80 IgV-Fc, IgV SEQ ID NO:174 (protein)
chain: B2 chain with R13T, R16C, K34E, T41A, Q70L, D71A, L72V
B5: V22I/L70M/A71D: variant CD80 IgV-Fc, IgV SEQ ID NO:160 (protein)
chain: B2 chain with R13T, R16C, V22I, Q70M
B6: E35D/M47I/L65P/D90N: variant CD80 IgV-Fc, IgV SEQ ID NO:167 (protein)
chain: B2 chain with R13T, R16C, E35D, M47I, L65P, Q70L, D71A, D90N
B7: L25S/E35D/M47I/D90N: variant CD80 IgV-Fc, IgV SEQ ID NO:168 (protein)
chain: B2 chain with R13T, R16C, L25S, E35D, M47I, Q70L, D71A, D90N
B8: T57I: variant CD80 IgV-Fc, IgV SEQ ID NO:156 (protein)
chain: B2 chain with R13T, R16C, T57I, Q70L, D71A
B9: I30V/T57I/L70P/A71D/A91T: variant CD80 IgV-Fc, IgV SEQ ID NO:159 (protein)
chain: B2 chain with R13T, R16C, I30V, T57I, Q70P, A91T
B10: A71D: variant CD80 IgV-Fc, IgV SEQ ID NO:170 (protein)
chain: B2 chain with R13T, R16C, Q70L
B11: V22L/M38V/M47I/A71D/L85M: variant CD80 IgV-Fc, IgV SEQ ID NO:158 (protein)
chain: B2 chain with R13T, R16C, V22L, M38V, M47T, Q70L, L85M
B12: M43I/C82R: variant CD80 IgV-Fc, IgV SEQ ID NO:157 (protein)
chain: B2 chain with R13T, R16C, M43I, Q70L, D71A, C82R

test system: human pan T cells; experiment: Anti-CD3 coimmobilization assay, IFN-gamma; assay type: cell-based; conditions: Table E34; culture supernatant, 3 days
How it was run: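 IFN-gamma in 3-day culture supernatants, quantified by ELISA, reflects costimulation. Human pan T cells or BC3 clone (100,000/well, Ex-Vivo 15) were placed on wells pre-adsorbed overnight with rCD80.Fc variants (1–80 nM) together with anti-CD3 OKT3 (1 nM or 4 nM), unbound protein removed.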

| Molecule | Anti-CD3 IFN-gamma Coimmobilization Assay [pg/mL] |
| --- | --- |
| B1 | 278 |

biological target: CD28 (Homo sapiens, UniProt P10747); experiment: Jurkat/IL2 reporter assay: blockade of CD28 costimulation (plate-bound anti-CD3/CD86-Fc); assay type: cell-based; design: host or cells: Jurkat cells expressing an IL-2-luciferase reporter; conditions: Table E5; protein diluted to 40 nM before mixing with cells; 5 hours
Procedure: The day before the assay, the assay plate was prepared. […] The plate was incubated overnight at 4° C. to allow the antibody and CD86-Fc protein to adhere to the surface of the plate. The next day, the wells of the assay plate were washed twice with 150 μL PBS prior to the assay.
Jurkat effector cells expressing IL-2-luciferase reporter were counted and resuspended in assay buffer to a concentration of 2×10^6 cells/mL. 60 μL of the Jurkat cell suspension were then added to the wells containing the CD80-Fc fusion molecules or controls. The cells and CD80 proteins were incubated at room temperature for 15 minutes and then 100 μL of the cell/CD80 protein mixture were transferred/well of the prepared anti-CD3/CD86-Fc assay plate.
The assay plate was briefly spun down (10 seconds at 1200 RPM) and incubated at 37° C. for 5 hours. After the 5 hour incubation, the plate was removed and equilibrated to room temperature for 15 minutes. 100 μL of Bio-Glo (Promega) were added/well of the assay plate, which was then placed on an orbital shaker for 10 minutes. Luminescence was measured with a 1 second per well integration time using a BioTek Cytation 3 luminometer.

| Molecule | Average Relative Luminescence Units |
| --- | --- |
| B2 | 3204 Relative Luminescence Units |
| B3 | 4038 Relative Luminescence Units |
| B4 | 4225 Relative Luminescence Units |
| B5 | 253 Relative Luminescence Units |
| B6 | 2377 Relative Luminescence Units |
| B7 | 2567 Relative Luminescence Units |
| B8 | 1463 Relative Luminescence Units |
| B9 | 1731 Relative Luminescence Units |
| B10 | 999 Relative Luminescence Units |
| B11 | 1770 Relative Luminescence Units |
| B12 | 1326 Relative Luminescence Units |
